Measured values as given in PMC8819685.

Target: Human plasminogen (human)
Sequence (P00747 20-810): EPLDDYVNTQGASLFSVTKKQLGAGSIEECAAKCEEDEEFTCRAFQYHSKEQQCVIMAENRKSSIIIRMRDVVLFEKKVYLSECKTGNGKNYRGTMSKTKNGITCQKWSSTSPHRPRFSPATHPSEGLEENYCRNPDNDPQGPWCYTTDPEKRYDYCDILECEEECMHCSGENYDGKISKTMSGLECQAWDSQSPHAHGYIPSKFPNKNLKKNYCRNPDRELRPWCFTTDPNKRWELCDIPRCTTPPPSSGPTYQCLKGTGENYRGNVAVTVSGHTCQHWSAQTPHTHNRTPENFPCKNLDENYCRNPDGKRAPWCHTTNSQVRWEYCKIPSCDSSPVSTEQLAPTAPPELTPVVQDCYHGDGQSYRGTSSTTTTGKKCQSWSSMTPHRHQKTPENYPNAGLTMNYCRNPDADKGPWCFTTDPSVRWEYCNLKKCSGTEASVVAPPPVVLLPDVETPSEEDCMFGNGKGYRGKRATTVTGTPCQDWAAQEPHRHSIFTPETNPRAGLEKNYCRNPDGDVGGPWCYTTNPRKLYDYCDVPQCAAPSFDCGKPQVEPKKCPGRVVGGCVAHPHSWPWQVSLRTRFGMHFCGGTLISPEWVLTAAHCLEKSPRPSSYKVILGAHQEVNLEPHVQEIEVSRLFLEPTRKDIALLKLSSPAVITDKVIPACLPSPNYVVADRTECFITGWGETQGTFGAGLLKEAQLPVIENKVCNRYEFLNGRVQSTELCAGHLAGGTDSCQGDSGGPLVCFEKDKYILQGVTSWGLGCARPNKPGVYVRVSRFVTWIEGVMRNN

B1: EPF3, fibrinolytic protein from Pheretima vulgaris (enzyme)
chain: ILGGTEARVGEIPWQLSQQRGGSHSCGASLLRPGSALSAAHCVDGAPPADVRIVAGLHLRSDESTAVASLAESFLIHPSYNVGEGTFPNDIAIIYLLTNINSAPVENIDFALLPPDNVEQFVGFTCVLSGWGRTSASNVLPDALQKVSIDVITTAECDSRMAAVAGADCTDAHIAVFDPALQKGSCNGDSGGPMNCPLSGEFVVAGVTSWGISGGGACLPEYPSVYTRTGFYRQWIIDNIR
- plasminogen activation on fibrin plates: fibrinolytic zone of the mixture of EPF3 and plasminogen against that of EPF3 alone (3, 6, 18 h, 37°C): 20.2%
